Data as given in US20260109776A1 (Amgen, published 2026).
Read-outs that look alike come from different tables or passages of the source. One block for each binder: values may come before it.

Experiments:
[1] = target: T1, soluble recombinant cynomolgus monkey mesothelin (cynomolgus monkey); assay: Octet, soluble recombinant cyno MSLN
T1 chain: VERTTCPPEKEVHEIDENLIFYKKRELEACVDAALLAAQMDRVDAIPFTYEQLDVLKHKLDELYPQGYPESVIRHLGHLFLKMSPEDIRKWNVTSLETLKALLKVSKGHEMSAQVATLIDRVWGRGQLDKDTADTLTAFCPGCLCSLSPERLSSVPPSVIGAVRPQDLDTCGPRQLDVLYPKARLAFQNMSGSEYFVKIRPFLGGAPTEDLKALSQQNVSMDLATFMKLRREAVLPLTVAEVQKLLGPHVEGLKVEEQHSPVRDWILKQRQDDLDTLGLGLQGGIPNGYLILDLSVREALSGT

[2] = target: human CD40 on purified human B cells (human, UniProt P25942 21-277); assay: cell-based or functional assay
[3] = target: T2, huCD40(1-193) (human, UniProt P25942 21-193); assay: Octet, soluble antigen
T2 construct: Soluble form used in Octet; also called human CD40; soluble human CD40

[4] = target: huMSLN(296-598) (human, UniProt Q13421 296-598); assay: Octet, soluble antigen
Target sequence in this assay (Q13421 other isoform, or with tags, fused parts or gaps): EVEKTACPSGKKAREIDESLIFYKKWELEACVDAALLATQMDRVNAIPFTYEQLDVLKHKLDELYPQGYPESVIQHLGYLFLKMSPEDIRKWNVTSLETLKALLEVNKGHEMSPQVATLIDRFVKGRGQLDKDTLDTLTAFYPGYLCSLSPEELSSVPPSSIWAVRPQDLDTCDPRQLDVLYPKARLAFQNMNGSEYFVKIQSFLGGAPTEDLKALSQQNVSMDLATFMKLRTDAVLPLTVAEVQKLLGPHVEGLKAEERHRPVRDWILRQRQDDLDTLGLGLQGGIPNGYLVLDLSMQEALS

[5] = target: T3, cynoCD40(1-193) (cynomolgus monkey, UniProt P25942 21-193 (human entry)); assay: Octet, soluble antigen
T3 construct: Soluble form used in Octet; also called cynomolgus monkey CD40
T3 chain: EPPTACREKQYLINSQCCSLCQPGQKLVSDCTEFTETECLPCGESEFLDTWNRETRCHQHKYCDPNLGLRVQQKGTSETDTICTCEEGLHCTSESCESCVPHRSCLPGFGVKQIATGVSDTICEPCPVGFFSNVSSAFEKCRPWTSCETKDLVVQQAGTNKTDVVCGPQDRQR

[6] = target: T4, human CD40 (human, UniProt P25942 21-277); assay: cell-based or functional assay
[7] = target: T5, cynoMSLN(296-598) (cynomolgus monkey); assay: Octet
T5 chain: T1 chain
Experimental: (§1) A panel of mesothelin×CD40 bispecific antibodies were generated in the IgG-scFv format (Table 13) and evaluated for binding to soluble forms of human and cynomolgus monkey CD40 and human and cynomolgus monkey mesothelin using the Octet assay (Table 14). Association rate (Kon), disassociation rate (Kdis), and equilibrium binding constant (KD) were calculated. […] These bispecific antibodies were next evaluated for their ability to induce mesothelin-dependent activation of human B cells. CHO cells expressing human mesothelin were seeded into a 96 well plate. The next day varying concentrations of the mesothelin×CD40 IgG-scFv antibodies were added to the wells along with purified human B cells and the plates were incubated for an additional 48 hours. Upregulation of CD86, a marker of CD40-mediated B cell activation, was quantified on B cells by flow cytometry.

[8] = target: T6, huMSLN(296-598) (human, UniProt Q13421 296-598); assay: Octet
T6 construct: also called soluble human mesothelin
Experimental: as §1
T6 sequence (Q13421 other isoform, or with tags, fused parts or gaps): as the sequence (Q13421 other isoform, or with tags, fused parts or gaps) above

[9] = target: T7, huCD40(1-193) (human, UniProt P25942 21-193); assay: Octet
T7 construct: also called soluble human CD40
Experimental: as §1

[10] = target: T8, cynoCD40(1-193) (cynomolgus monkey, UniProt P25942 21-193 (human entry)); assay: Octet
T8 construct: also called soluble cynomolgus monkey CD40
T8 chain: T3 chain
Experimental: as §1

[11] = target: T4, human CD40; assay: cell-based or functional assay; remark: listed apart in the source

Kd [1]: 6400 pM
koff [1]: 0.00188 s⁻¹
kon [1]: 294000 M⁻¹ s⁻¹
B1: anti-mesothelin antibody 7G11 (antibody, V domains shown)
VH: EVQLVESGGGLIQPGGSLRLSCAVSGFTVSSKFMTWVRQAPGKGLEWVSVIYSGGKTYYADSVKGRFTISRDNSKNTLYLQMNSLRAEDTAVYYCARDSGGWGYFDYWGQGTLVTVSS
VL: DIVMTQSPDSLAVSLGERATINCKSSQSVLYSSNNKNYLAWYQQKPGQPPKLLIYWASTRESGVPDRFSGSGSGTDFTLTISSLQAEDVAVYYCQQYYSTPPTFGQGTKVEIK

EC50 (nM), CD86 upregulation on human B cells in the presence of CHO cells expressing human mesothelin [2]: 0.007 nM
Kd [3]: 4000 pM
koff [3]: 0.000531 s⁻¹
kon [3]: 134000 M⁻¹ s⁻¹
Kd [4]: 500 pM
koff [4]: 0.00027 s⁻¹
kon [4]: 568000 M⁻¹ s⁻¹
Kd [5]: 1700 pM
koff [5]: 0.000137 s⁻¹
kon [5]: 80600 M⁻¹ s⁻¹
B2: Anti-CD40xMSLN IgG-Fab molecule 5972-1 (bispecific antibody)
chain 1: QVQLVESGGGLVKPGGSLRLSCAASGFTFSDYYMSWIRQAPGKGLEWISYISSSESIIYYVDSVKGRFTISRDNAKNSLYLQMNSLRAEDTAVYYCARDVGSHFDYWGQGTLVTVSS
chain 2: DIQMTQSPSSVSASVGDRVTITCRASQDISRWLAWYQQKPGKAPKLLISAASRLQSGVPSRFSGSGSGTDFTLTISSLQPEDFAIYYCQQAKSFPRTFGQGTKVEIKR
chain 3: QVQLQQSGPGLVKPSQTLSLTCAISGDSVSSSRTAWNWIRQSPSRGLEWLGRTYYRSKWYHDYSVSVKSRITIDPDTSKNQFSLQLNSVTPEDTAVYYCARGAAPFDYWGQGTLVTVSS
chain 4: EIVLTQSPGTLSLSPGERATLSCRASQSVSSNYLAWYQQKPGQAPRALIYAASNRAAGISDRFSGSGSGTDFTLTISRLEPEDFAVYFCQQYGSSPLTFGGGTKVEIKR

EC50 (nM), CD86 upregulation on human B cells in the presence of CHO cells expressing human mesothelin [2]: 0.003 nM
Kd [3]: 700 pM
koff [3]: 0.000423 s⁻¹
kon [3]: 600000 M⁻¹ s⁻¹
Kd [4]: 1000 pM
koff [4]: 0.000439 s⁻¹
kon [4]: 424000 M⁻¹ s⁻¹
Kd [5]: 700 pM
koff [5]: 0.000526 s⁻¹
kon [5]: 752000 M⁻¹ s⁻¹
B3: Anti-CD40xMSLN IgG-Fab molecule 5987-1 (bispecific antibody)
chain 1: QVQLVQSGAEVTKPGASVKVSCKASGYTFAGYYMHWVRQAPGQGLEWMGWINPHSGGTNYAQKFQDRVTMTRDTSINTAYMELSRLRSDDTAVYYCARERISMVRGVGHNWFAPWGQGTLVTVSS
chain 2: DIQMTQSPSSLSASVGDRVTITCRASQDISNNLAWFQQKPGKPPKSLMYAASSLHSGVPSTFSGSGSGTDFTFTISSLQPEDFATYYCQQYNSYPLTFGGGTKVEIRR
chain 3: B2 chain 1
chain 4: B2 chain 2

EC50 (nM), CD86 upregulation on human B cells in the presence of CHO cells expressing human mesothelin [2]: 0.006 nM
Kd [3]: 600 pM
koff [3]: 0.000325 s⁻¹
kon [3]: 541000 M⁻¹ s⁻¹
Kd [4]: 500 pM
koff [4]: 0.000223 s⁻¹
kon [4]: 451000 M⁻¹ s⁻¹
Kd [5]: 600 pM
koff [5]: 0.000404 s⁻¹
kon [5]: 669000 M⁻¹ s⁻¹
B4: Anti-CD40xMSLN IgG-Fab molecule 5973-1 (bispecific antibody)
chain 1: B2 chain 1
chain 2: B2 chain 2
chain 3: QVQLVESGGGLVKPGGSLRLSCAASEFTFSDYYMSWIRQAPGKGLEWVSYISRSGDTIYYADSVKGRFTISRDNAKNSLYLQMNGLRAEDTAVYYCARDLAAGATGGLDCWGQGTLVTVSS
chain 4: SYELTQPPSVSVSPGQTASITCSGERLGNKYICWYQQKPGQSPVLVIYQDFKRPSGIPERFSGSNSGITATLTISGTQAMDEADYYCQAWDSRTVVFGGGTKLTVLG

EC50 (nM), CD86 upregulation on human B cells with huMSLN-CHO cells [6]: 0.00316 nM
Kd [7]: 19000 pM
koff [7]: 0.00519 s⁻¹
kon [7]: 269000 M⁻¹ s⁻¹
Kd [8]: 700 pM
koff [8]: 0.000533 s⁻¹
kon [8]: 713000 M⁻¹ s⁻¹
Kd [9]: 2500 pM
koff [9]: 0.000556 s⁻¹
kon [9]: 218000 M⁻¹ s⁻¹
Kd [10]: 3300 pM
koff [10]: 0.00035 s⁻¹
kon [10]: 105000 M⁻¹ s⁻¹
EC50 (nM), CD86 upregulation on human B cells with huMSLN-CHO cells [11]: 0.00445 nM
B5: 6052-2 (bispecific antibody)
heavy: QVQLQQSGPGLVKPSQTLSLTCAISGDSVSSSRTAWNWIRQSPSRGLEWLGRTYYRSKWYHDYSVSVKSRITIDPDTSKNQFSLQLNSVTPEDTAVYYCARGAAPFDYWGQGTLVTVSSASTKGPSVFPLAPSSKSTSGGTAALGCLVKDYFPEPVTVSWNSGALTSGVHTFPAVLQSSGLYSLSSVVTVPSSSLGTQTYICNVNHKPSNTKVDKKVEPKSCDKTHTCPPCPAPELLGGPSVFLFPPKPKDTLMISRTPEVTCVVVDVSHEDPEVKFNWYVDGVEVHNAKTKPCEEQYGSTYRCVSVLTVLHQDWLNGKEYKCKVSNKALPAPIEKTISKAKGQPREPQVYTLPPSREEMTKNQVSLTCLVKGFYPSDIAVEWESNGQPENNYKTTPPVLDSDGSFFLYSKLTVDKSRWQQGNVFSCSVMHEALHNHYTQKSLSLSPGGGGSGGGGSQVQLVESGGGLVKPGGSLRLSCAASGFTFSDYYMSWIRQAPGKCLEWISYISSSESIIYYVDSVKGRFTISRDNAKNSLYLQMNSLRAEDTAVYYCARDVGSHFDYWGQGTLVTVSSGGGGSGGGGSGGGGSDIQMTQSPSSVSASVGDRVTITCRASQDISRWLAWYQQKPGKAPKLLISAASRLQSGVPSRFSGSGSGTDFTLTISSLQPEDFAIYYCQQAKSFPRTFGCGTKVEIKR
light: EIVLTQSPGTLSLSPGERATLSCRASQSVSSNYLAWYQQKPGQAPRALIYAASNRAAGISDRFSGSGSGTDFTLTISRLEPEDFAVYFCQQYGSSPLTFGGGTKVEIKRTVAAPSVFIFPPSDEQLKSGTASVVCLLNNFYPREAKVQWKVDNALQSGNSQESVTEQDSKDSTYSLSSTLTLSKADYEKHKVYACEVTHQGLSSPVTKSFNRGEC
notes: IgG-scFv: IgG (CD40) 36F3, scFv (MSLN) 6F4; also called 6052-3
